What is called Kd is a measure of binding affinity in units of concentration. Read a low Kd as higher affinity.

This assay deals with 10th and 11th cadherin repeat domains of the Plutella xylostella cadherin (PxCR10–11), GST-tagged (Plutella xylostella). In words: BLI; Octet Red 96; GST-tagged PxCR10–11 loaded onto anti-GST biosensors; toxin 38.5 to 576.9 nM in solution; 400 s association, 400 s dissociation; 10 mM GSH, 50 mM Tris, pH 8.0; 1:1 binding model. Background: Biolayer interferometry detects binding as a change in optical thickness at a sensor tip.

On to “Cry2Ab–AVM bioconjugate (Cry2Ab30 conjugated with 4''-O-succinyl avermectin)”, for which the Kd came to 3.44 nM. Under “Cry2Ab–AVMd (Cry2Ab30 conjugated with 4'',5-O-succinyl avermectin)” stands 71.9 nM.

(Values after paper PMC6783867.)
